Several values for one entry are separate records, joined by “and”; a condition that tells them apart may be missing. Identical values can stand only once.
Key:
[1] = system: T1, (GR)10 dipeptide repeat peptide
T1 sequence: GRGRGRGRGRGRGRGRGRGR

Biotin-(PEG)4-(GR)10 = system: T2, Biotin-(PEG)4-(GR)10
T2 sequence: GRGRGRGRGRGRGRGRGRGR

Sequence of Immobilized TPCK-trypsin on agarose resin; ThermoFisher Cat #20230 (P00760 24-246): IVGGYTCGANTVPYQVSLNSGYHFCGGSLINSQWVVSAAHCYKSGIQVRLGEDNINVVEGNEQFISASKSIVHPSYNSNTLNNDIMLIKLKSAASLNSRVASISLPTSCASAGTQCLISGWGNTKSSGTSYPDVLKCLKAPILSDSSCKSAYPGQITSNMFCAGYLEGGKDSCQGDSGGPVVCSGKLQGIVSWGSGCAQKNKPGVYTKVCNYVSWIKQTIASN

Substance | digestion of biotin-(PEG)4-(GR)10 after 5 minutes, immobilized enzyme (LC/MS) (Biotin-(PEG)4-(GR)10) | (GR)10 concentration left at 10 min (LC/MS; 50 µM start) [1] | (GR)10 concentration left at 30 min (LC/MS; 50 µM start) [1] | (GR)10 concentration left at 120 min (LC/MS; 50 µM start) [1] | (GR)10 concentration left at 0 min (LC/MS; 50 µM start; TFA added before enzyme) [1] | (GR)10 concentration left at 5 min (LC/MS; 50 µM start) [1] | (GR)10 concentration left at 60 min (LC/MS; 50 µM start) [1] | proteolytic activity on (GR)10 of immobilized enzyme after storage at 4° C. for over 2 months (LC/MS) [1] | further results
Factor Xa |  |  |  |  |  |  |  |  | (GR)10 concentration left at 0 min (LC/MS; 50 µM start; TRIS buffer; TFA added before enzyme) [1]: 33.1 µM and 31 µM; (GR)10 concentration left at 5 min (LC/MS; 50 µM start; TRIS buffer) [1]: 35 µM and 23.5 µM; (GR)10 concentration left at 10 min (LC/MS; 50 µM start; TRIS buffer) [1]: 19.4 µM and 13.6 µM
Immobilized TPCK-trypsin on agarose resin; ThermoFisher Cat #20230 | over 90% digestion of biotin-(PEG)4-(GR)10 after only 5 minutes of incubation time | 2.1 µM and 1.6 µM | 0.6 µM and 0.9 µM | 0.1 µM |  |  |  |  | (GR)10 concentration left at 0 min (LC/MS; 50 µM start) [1]: 68.4 µM and 32.7 µM; (GR)10 left in CSF; Commercial Trypsin-Immobilized-5 min reaction (LC/MS; 200 µM (GR)10 in human CSF) (normalized µM) [1]: -0; (GR)10 left in CSF; Commercial Trypsin-Immobilized-605 min reaction [as printed; 60 min meant] (LC/MS; 200 µM (GR)10 in human CSF) (normalized µM) [1]: -0; (GR)10 left; Commercial Trypsin-Immobilized-5 min reaction (LC/MS) [1]: 0 µM; (GR)10 left; Commercial Trypsin-immobilized-60 min reaction (LC/MS) [1]: 0 µM; (GR)10 left; Commercial Trypsin-resin wash from 5 min reaction (LC/MS) [1]: 0 µM; (GR)10 left; Commercial Trypsin-resin wash from 60 min reaction (LC/MS) [1]: 0 µM; digestion of (GR)10 to shorter GR repeats (LC/MS) [1]: Immobilized trypsin at 6.25 TAME Units digests (GR)10 to almost exclusively (GR)1 in 10 to 30 minutes
Kallikrein 6 (neurosin), autoactivated |  | 50.1 µM and 60.8 µM | 57.8 µM and 65 µM | 54.3 µM and 57.4 µM | 27.8 µM and 54.7 µM | 42.2 µM and 57.5 µM | 54.2 µM and 71.5 µM |  | 
elastase | over 90% digestion of biotin-(PEG)4-(GR)10 after only 5 minutes of incubation time | 52.5 µM and 37.8 µM | 43.6 µM and 21.1 µM |  | 53.8 µM and 41.6 µM | 52.6 µM and 50.5 µM | 35.3 µM and 12.2 µM | agarose resin having immobilized elastase did not exhibit substantial (GR)10 proteolytic activity at either 5 minute or 60 minute treatment times | (GR)10 left in CSF; Elastase-Immobilized-5 min reaction (LC/MS; 200 µM (GR)10 in human CSF) (normalized µM) [1]: -0; (GR)10 left in CSF; Elastase-Immobilized-605 min reaction [as printed; 60 min meant] (LC/MS; 200 µM (GR)10 in human CSF) (normalized µM) [1]: -0; (GR)10 left; Elastase-Immobilized-5 min reaction (LC/MS) (µM (normalized to GR concentration)) [1]: -0; (GR)10 left; Elastase-immobilized-60 min reaction (LC/MS) (µM (normalized to GR concentration)) [1]: -0; (GR)10 left; Elastase-in solution-5 min reaction (LC/MS) [1]: 213 µM; (GR)10 left; Elastase-in solution-60 min reaction (LC/MS) (µM (normalized to GR concentration)) [1]: 21.6; (GR)10 left; Elastase-resin wash from 5 min reaction (LC/MS) (µM (normalized to GR concentration)) [1]: -0; (GR)10 left; Elastase-resin wash from 60 min reaction (LC/MS) (µM (normalized to GR concentration)) [1]: -0
thrombin (activated by thermolysin, quenched by EDTA) |  | 46.7 µM and 59.4 µM | 49.1 µM and 48.6 µM | 45.3 µM and 48.7 µM | 37.7 µM and 52 µM | 42.9 µM and 54.8 µM | 56.2 µM and 55.2 µM |  | 
trypsin | over 90% digestion of biotin-(PEG)4-(GR)10 after only 5 minutes of incubation time | BLQ | BLQ | BLQ | 52.8 µM and 48.9 µM | 2.2 µM and 2 µM | BLQ | agarose resin having immobilized trypsin exhibited proteolytic activity after storage at 4 °C for over 2 months | (GR)10 left in CSF; Trypsin-Immobilized-5 min reaction (LC/MS; 200 µM (GR)10 in human CSF) [1]: 0 µM; (GR)10 left in CSF; Trypsin-Immobilized-60 min reaction (LC/MS; 200 µM (GR)10 in human CSF) (normalized µM) [1]: -0; (GR)10 left; Trypsin-Immobilized-5 min reaction (LC/MS) [1]: 0 µM; (GR)10 left; Trypsin-immobilized-60 min reaction (LC/MS) [1]: 0 µM; (GR)10 left; Trypsin-in solution-5 min reaction (LC/MS) [1]: 0 µM; (GR)10 left; Trypsin-in solution-60 min reaction (LC/MS) [1]: 0 µM; (GR)10 left; Trypsin-resin wash from 5 min reaction (LC/MS) [1]: 6.6 µM; (GR)10 left; Trypsin-resin wash from 60 min reaction (LC/MS) [1]: 0 µM; conversion of (GR)10 to shorter GR repeats (LC/MS) [1]: Almost complete conversion to (GR)1 and (GR)2 was observed in 5 to 10 min using either 2.5 or 10 µg/mL of trypsin for concentrations 50 µM of (GR)10
